Source: US8119594B1, “Method of modulating integrin mediated cellular activity and agents useful for same” (Inter-K Pty Limited, priority 1999, dated 2012)

Test system: β6-bound ERK
Test: β6 immunoprecipitation and ERK Western blot in transfected SW480 cells
Assay type: cell-based, human
Details: SW480 transfectants; mAb R6G9 immunoprecipitates probed with E10; FIG. 27(B)
Source text: Construction of the β6 Δ746-764 (SEQ ID NO. 19) deletion mutant in the vector pcDNA1neo and failure of the expressed receptor to localise to focal adhesions in Chinese hamster ovary cells has been reported (Cone et al, 1994).
Equal protein loads of cell lysates prepared from SW480 cells were immunoprecipitated with either anti-β6 monoclonal antibody (mAb R6G9) or matched isotype control antibody.

B1: β6 Δ746-764 deletion mutant: β6 subunit expressed from a deletion construct lacking the coding sequence for … (protein)
chain: WLCLGGAETCEDCLLIGPQCAWCAQENFTHPSGVGERCDTPANLLAKGCQLNFIENPVSQVEILKNKPLSVGRQKNSSDIVQIAPQSLILKLRPGGAQTLQVHVRQTEDYPVDLYYLMDLSASMDDDLNTIKELGSGLSKEMSKLTSNFRLGFGSFVEKPVSPFVKTTPEEIANPCSSIPYFCLPTFGFKHILPLTNDAERFNEIVKNQKISANIDTPEGGFDAIMQAAVCKEKIGWRNDSLHLLVFVSDADSHFGMDSKLAGIVIPNDGLCHLDSKNEYSMSTVLEYPTIGQLIDKLVQNNVLLIFAVTQEQVHLYENYAKLIPGATVGLLQKDSGNILQLIISAYEELRSEVELEVLGDTEGLNLSFTAICNNGTLFQHQKKCSHMKVGDTASFSVTVNIPHCERRSRHIIIKPVGLGDALELLVSPECNCDCQKEVEVNSSKCHHGNGSFQCGVCACHPGHMGPRCECGEDMLSTDSCKEAPDHPSCSGRGDCYCGQCICHLSPYGNIYGPYCQCDNFSCVRHKGLLCGGNGDCDCGECVCRSGWTGEYCNCTTSTDSCVSEDGVLCSGRGDCVCGKCVCTNPGASGPTCERCPTCGDPCNSKRSCIECHLSAAGQAGEECVDKCKLAGATISEEEDFSKDGSVSCSLQGENECLITFLITTDNEGKTIIHSINEKDCPKPPNIPMIMLGVSLATLLIGVVLLCIWKLLVSFHDRKEVAKFSTSTFKNVTYKHREKQKVDLSTDC
With B1 the “reduction of β6-bound ERK relative to wild type receptor” value was over 75%.
